Source: publication PMC2787699

Substrate: O=C(O)[C@@H](O)[C@H](O)[C@H](O)[C@@H](O)C(=O)O
Assay: purified protein
Assay type: biochemical, Oceanobacillus iheyensis
Conditions: 50 mM Hepes pH 8.0, 5 mM MgCl2

B1: Ob2843; galactarate dehydratase GalrD-II (Oceanobacillus iheyensis HTE831) (protein)
chain: MKITDLELHAVGIPRHTGFVNKHVIVKIHTDEGLTGIGEMSDFSHLPLYSVDLHDLKQGLLSILLGQNPFDLMKINKELTDNFPETMYYYEKGSFIRNGIDNALHDLCAKYLDISVSDFLGGRVKEKIKVCYPIFRHRFSEEVESNLDVVRQKLEQGFDVFRLYVGKNLDADEEFLSRVKEEFGSRVRIKSYDFSHLLNWKDAHRAIKRLTKYDLGLEMIESPAPRNDFDGLYQLRLKTDYPISEHVWSFKQQQEMIKKDAIDIFNISPVFIGGLTSAKKAAYAAEVASKDVVLGTTQELSVGTAAMAHLGCSLTNINHTSDPTGPELYVGDVVKNRVTYKDGYLYAPDRSVKGLGIELDESLLAKYQVPDLSWDNVTVHQLQDRTADTKS
For B1, the Km was 620 ± 380 µM, the kcat was 6.8 ± 1.2 s⁻¹ and the kcat/Km was 11000 M⁻¹ s⁻¹.

B2: Ob2843; galactarate dehydratase GalrD-II (Oceanobacillus iheyensis HTE831; Y90F) (protein)
chain: MKITDLELHAVGIPRHTGFVNKHVIVKIHTDEGLTGIGEMSDFSHLPLYSVDLHDLKQGLLSILLGQNPFDLMKINKELTDNFPETMYYFEKGSFIRNGIDNALHDLCAKYLDISVSDFLGGRVKEKIKVCYPIFRHRFSEEVESNLDVVRQKLEQGFDVFRLYVGKNLDADEEFLSRVKEEFGSRVRIKSYDFSHLLNWKDAHRAIKRLTKYDLGLEMIESPAPRNDFDGLYQLRLKTDYPISEHVWSFKQQQEMIKKDAIDIFNISPVFIGGLTSAKKAAYAAEVASKDVVLGTTQELSVGTAAMAHLGCSLTNINHTSDPTGPELYVGDVVKNRVTYKDGYLYAPDRSVKGLGIELDESLLAKYQVPDLSWDNVTVHQLQDRTADTKS
With B2 the Km was 2000 ± 480 µM, the kcat was 0.0061 ± 0.006 s⁻¹ and the kcat/Km was 3.1 M⁻¹ s⁻¹.
